Biological target: CP-capped actin filament barbed ends (not stated | chicken) (UniProt P60709)
Assay: single-filament uncapping assay

Substance: mouse twinfilin-1 (from UniProt Q91YR1 1-350) (natural protein)
- Kd: 300 nM
